According to the domain aggregation screens of Martell et al. (2025):

Assay: soluble fraction after stress (log2 fold change); higher = more stays soluble; pooled small domains, quantitative proteomics
Conditions: stress: 50 degC
Summary of the method: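 The measure of aggregation propensity here is the base-two logarithm of the fold change in the soluble amount of each protein after stress. A higher value means more of that protein stays in solution. Stress was applied at 50°C to pooled libraries of small protein domains, read out by high-throughput quantitative proteomics.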
For “HMIEEIAVPEILGMQEEEAKAKIEGLGLVFNVTDRVKSNEYEKGEVMYQSVGPDDTTVKSGYPINVTISEG”, the “soluble fraction (log2)” value was -0.0543. With “HMAVLFFVKRGERILGPTRLADLFQHAASGRLRANDLVGESPKGPWLPARQLDELEDAWASSRDATEAAAA” the “soluble fraction (log2)” value was 0.251. With “HMALALDDLFDRYEQLQDQSLGDKTEEGQELRAMIRAYIEQEGLSVRVTRSTTNRELLELIEQEMEG” the “soluble fraction (log2)” value was -0.174. With “HMHLPDNAVSIISELKMTPEEVLELIGKLPHDFLFLPYSQRKKIIVDLIPNKDYKLLMSLIKKFML” the “soluble fraction (log2)” value was -1.12. For “HMIINFDAIRLTTELNKYNRHKAIPNSFFDGTFTILDVRDLYDSLSPKVQKIADTLIEQYNVDVKQ”, the “soluble fraction (log2)” value was -1.85. With “HMLRVGASVTANGKYWYDSYGSKPFGTANNLSTTVTRIVPGNPYPIHIGSYGWLQESQIQIT” the “soluble fraction (log2)” value was -1.03. With “HMGAQRDFELQLIDVIRQNPGLTYKAYGEKLSVSQATVKRLVAKLKETGSIRREGSQRKGTWIITDD” the “soluble fraction (log2)” value was -0.867. With “HMLKLEDIKKDAQVKGIVDGQIVRIVTVEPIGDHALTVYYKDHQGQFAERMLFRSDELNLELATA” the “soluble fraction (log2)” value was -0.00641. For “HMVKLQATPSQRKTLDELYVQLKKLEPTAKEDLSLLRRLENSHLVSKQEAQGLISKAIGRVGALAVEQQP”, the “soluble fraction (log2)” value was 0.0652. In the case of “HMSADKAEAAEASLKSFNLRLQAAAMEAGKTFAPVTADQYAEYKAAWGTYIRKGIEGLSESEKKTINVG”, the “soluble fraction (log2)” value is reported as -0.03. With “HMATNVLEISTRNKNILIQDSLNLVESFYSKSDNQYWYKLVFKTKDDLNKFLQEVSEDENTITYKTSSI” the “soluble fraction (log2)” value was 0.217. In the case of “HMNKNLQLMINEIKKGLASEDIETRKKSVLMLSRIDAPEIIQVLEPLKDDSSEEIRKISSKIISVLSKKYT”, the “soluble fraction (log2)” value is reported as 0.168. For “HMEESEMIAFATVAHRIVGKPVEAVMRSYRNRDNIPADIAAIVSSKFTFSVTMAEASYRNPKKSYQVNSII”, the “soluble fraction (log2)” value was -0.00943. For “HMEYLIENYGSVINQARMKKGMTQEQLSSKTGVSQAYIRSIESQNMKPTDAVARKIEFELGIKLFE”, the “soluble fraction (log2)” value was -0.0273. For “HMIETLGDATFKRLKAMILDGTLEPGTRLSEKKFADHLGVSRTPVREAIGQLVSEGLAKRSAGSAPVVSS”, the “soluble fraction (log2)” value was 0.0372. For “HMEILVSTRRHEIASLLSRKKRVSFFELFPEKTKEYVVATFLAILEMAKAREVNITQEDTFDEIIVEEA”, the “soluble fraction (log2)” value was -0.43. For “HMDATFKVRVSVPDLNIRSGPGTNYAATGRFTGVGVFTITAVQSGQGSSSGWGKLKSGAGWIALDYAKR”, the “soluble fraction (log2)” value was -2.39. In the case of “HMEFSYMDQGLERYRAFLETHGHGNVPESYHELKLVNFVAHIRKLYRMNLLSEERRRALDEAGFVF”, the “soluble fraction (log2)” value is reported as -2.17. In the case of “HMQILPAFLPENPELRARLANHSLEELTEILKQYKTLHNSTDVDTVKRAIRAIEIEEYYAVHPV”, the “soluble fraction (log2)” value is reported as -0.777. With “HMLEEIDYPEEQLQLLFAWSRDHVQSTPPGLPVVDDHVWHILVRGYGATDQRTEAFALLASYAGFP” the “soluble fraction (log2)” value was -0.0919. In the case of “HMADMKIHLRPYAHDTNRWHVDIRLMHPTAATEIRKRLVAPAGLSEAQARAWGERQVPTILGKALGVI”, the “soluble fraction (log2)” value is reported as -0.415. In the case of “HMKFLYQKAREEIISLIQDGEIKPSEKIMPERELSELLGYNRMTIKKAINSLVAEGVLMKKRGAGTFLLG”, the “soluble fraction (log2)” value is reported as -0.387. For “HMRPEARAASLSDEERKIFDYLAANGEKTIDNISVAVKMSAADILKNITLMSAKGLVYMPSAGRYGVKGN”, the “soluble fraction (log2)” value was -0.00201. For “HMNKLKALREEQGLSMMEIAKQLNMPYTTYVNYEKGTREPNSEMLIKFSKFFNVTIDYLIGNSEQKN”, the “soluble fraction (log2)” value was -0.502. In the case of “HMPVSVAEQKQILAEALQERGHATFRELIENADNRMIVVGRFLALLELYRDGTVRFEQERALGELTIHWEE”, the “soluble fraction (log2)” value is reported as -0.318. For “HMGQAELPYSEFLREVNNGQVKSVIIEGSEITGFYKTSGTSFNVIAPDDPKLVERLMAQGVEVRAQPA”, the “soluble fraction (log2)” value was 0.0327. With “HMNTKHVFIIEQDDEKKRLDIFLVEKLQDSRSFLKKGIVEGWVKVNESVVKPNYKLKQKDQITVIIPP” the “soluble fraction (log2)” value was -0.278. For “HMHIVQEGDSLYGIARQYRITVEELRSLNALETADVIVPYQKLYV”, the “soluble fraction (log2)” value was -0.942. For “HMTEKPTREAHILDQLARDGGVLVAALSRELGVSEVTIRSDLRDLEAAGLLQRTHGGAQASSFQTVL”, the “soluble fraction (log2)” value was -0.0142. For “HMAKPVNISAEPYHYDPTRFRVTFELPRLSDQPRKRIRKVAPAGLDREQALAWAKRLEREVLHELLR”, the “soluble fraction (log2)” value was -0.494. In the case of “HMPKAKASARNDTRTRLLTIGTEVLSQKGFASTGVEEILSVAGVPKGAFYYYFESKAAFGLAVIENYE”, the “soluble fraction (log2)” value is reported as 0.0027. In the case of “HMSNLLKNILDVLEKEGPLKARKIALLLDSTRTTITHTTINSELYKALDLEGLTKNEQNIWSYVT”, the “soluble fraction (log2)” value is reported as 0.00627. In the case of “HMDGDVAVKGGDGVLEVRLANAANVRVYNLAGRLMADYTGTELHMPLPKGVYMVVAGDNRTKVVV”, the “soluble fraction (log2)” value is reported as 0.074. For “HMQANLPFSELLADVDRGLISDVTIKGDQVSGHYTDGRTFNTFIPPEADLVRRLTEKNVRIAAVPD”, the “soluble fraction (log2)” value was -0.111. With “HMDRADIDAVDAEWVRATMERLGLRAKHIESHTGISKSTLSILLNGHRPLTRWHKIAFYYLFKHIEF” the “soluble fraction (log2)” value was -2.68. With “HMANYYEILGVKHDATEAEIKAAYKQAAKSAHPDAGGSNEKMQEVNAAWEVLGNAQKRAEYDARMA” the “soluble fraction (log2)” value was 0.0756. With “HMSGSPREQAESEYRKAIAAVNQGRVSEATESLRAALRLDAFQVAARQLLVKLLLEAKNQDEAIQVLR” the “soluble fraction (log2)” value was -0.463. In the case of “HMGDSVLNDKLNTLAGLDEERFKWVLASLNPNNSYSTHSDKMSALMWLVSYFNDEADLKETVPPLPI”, the “soluble fraction (log2)” value is reported as -0.0724. With “HMYLLPVTSTELKGNYPNPFNPETTISFDLKDAERVNLSIYNLKGQLVRTLVNSDLPIGRHRLIWDGNDS” the “soluble fraction (log2)” value was -0.603. With “HMYEVVPNMRGLTYNQATAALAAAGLKVELSDSIYDEHTQPGTVLDQSPRPNTKVKPNRVVYLTVNAF” the “soluble fraction (log2)” value was -0.739. For “HMERNAEDFAAKYQEIYQDMFRFALYTLKNRQEAEDVVSETVLDAWKGIEGLKNESAFSAWMFRILVNK”, the “soluble fraction (log2)” value was 0.152. For “HMVSFSIDEALVSAVKGPRSANVMSIQRQFLVRLSVERDGRVTITGANSKSVQQAREAVEAAVEEAKLHP”, the “soluble fraction (log2)” value was -0.827. With “HMQDELSSSVIEEAVVVLLLRAANIDGKKDEQEIEAIKRLIIQQFNYDEEKADILITSASEK” the “soluble fraction (log2)” value was -0.218. In the case of “HMLDYQLQVFKDTLEANRKHRGQKIVFIHGKGEGVLRRALIHALNYQYKKFTYQDASFREYGYGATQVTI”, the “soluble fraction (log2)” value is reported as -0.103. For “HMLQPQMKKFLNYESARNKMRPFGLSTRKEWRLFVDEGNRPADIPGDPYKKYKNKGWISWPHFLGK”, the “soluble fraction (log2)” value was -1.58. For “HMKRSFGSVRQLRSGNYQARYTGPDTVRHTSPVTYTSKMDAEAWLVDERRKISSGTWTPPAR”, the “soluble fraction (log2)” value was 0.0133. With “HMLDLPVRTINGRQYYYYEVRNRETVYGLSKRLGVTREEIVRYNPSMADGLKRGAILYFPVDEFSDRI” the “soluble fraction (log2)” value was -0.281. With “HMSSIFTRIIAGEIPSYKVAEDENYYAFLDINPLTKGHTLVVPKMEVDYIFDLDDKTLAGMMLFAKKG” the “soluble fraction (log2)” value was -0.0969. In the case of “HMLGERIRTLRKEIGMSVTELARRVKTSPSHISEIERGEKMPSLNLLVKIAKELKTSIDYLTGLVG”, the “soluble fraction (log2)” value is reported as -0.0679. In the case of “HMGMFNENLRFLRQKRQMSQQAFASILGIPRTTYSEYEKGNTEPNLKLLIRLSELLDVSLDNLISDDLTHN”, the “soluble fraction (log2)” value is reported as -2.44. For “HMKTMAVYPVGTRVLTSDGEIGVVEKQNSEAPERPVIKILKGADGHDYEKPDFKDLMKILTLFIVDTI”, the “soluble fraction (log2)” value was 0.298. In the case of “HMNVAELIEGHEAEIAEVLKEFSLLYLMRLADELGEMTKSSSGNGPFQVLKGLVYEEIARRG”, the “soluble fraction (log2)” value is reported as -1.09. In the case of “HMNMVSGHLQIKKGYYYVVLSYYDNRNKRHVKYVSTGLPEKGNKRKAEAALARVRSEFEPPQE”, the “soluble fraction (log2)” value is reported as -3.55. In the case of “HMKQISNTDELEAMIQKIIEDNSQQVEKFRSGNEKLFGWFVGQVMKNTQGAANPKVVNEILKKSLK”, the “soluble fraction (log2)” value is reported as 0.177. With “HMSVTRELMLVKVKVTPEQRAGVSAIVDIFRANIIDVGKESMIIELTGNKSKLEAFIDLLDGYEILELART” the “soluble fraction (log2)” value was -0.861.
